Experimental findings from publication doi:10.1101/2025.11.21.689414 (bioRxiv, 2025) are described below.

The target of test [1] is Frizzled class receptor 7 (Fzd7), His-tagged (UniProt O75084). The experiment in a line: BLI. (Biolayer interferometry detects binding as a change in optical thickness at a sensor tip.)
Another test concerns the target parvin alpha (PARVA) (Homo sapiens (species ; …, UniProt Q9NVD7). The experiment in a line: ELISA. In general terms: ELISA stands for enzyme-linked immunosorbent assay.
Test [2] addresses alpha hemoglobin stabilizing protein (AHSP) (Homo sapiens (species ; …, UniProt Q9NZD4). Briefly: ELISA.

Chain of parvin alpha (PARVA) (Homo sapiens (Q9NVD7 whole entry): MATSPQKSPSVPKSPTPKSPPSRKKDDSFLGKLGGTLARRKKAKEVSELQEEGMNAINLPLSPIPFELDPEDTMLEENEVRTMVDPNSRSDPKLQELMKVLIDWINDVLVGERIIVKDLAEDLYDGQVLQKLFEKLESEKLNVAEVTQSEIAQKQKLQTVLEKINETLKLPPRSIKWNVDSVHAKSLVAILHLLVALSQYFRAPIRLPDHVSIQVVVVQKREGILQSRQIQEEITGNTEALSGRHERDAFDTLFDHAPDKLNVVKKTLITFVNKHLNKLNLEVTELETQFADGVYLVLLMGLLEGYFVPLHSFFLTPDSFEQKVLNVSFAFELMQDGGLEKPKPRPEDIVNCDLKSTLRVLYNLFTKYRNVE
Chain of alpha hemoglobin stabilizing protein (AHSP) (Homo sapiens (Q9NZD4 whole entry): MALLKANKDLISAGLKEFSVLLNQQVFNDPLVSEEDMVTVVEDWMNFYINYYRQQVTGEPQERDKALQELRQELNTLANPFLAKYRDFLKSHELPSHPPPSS

B1: F7.B (reference anti-Fzd7 antibody, PDB entry 6O3A) (antibody, V domains shown)
VH: EVQLVESGGGLVQPGGSLRLSCAASGFNFSSSSIHWVRQAPGKGLEWVAYIYPSYDYTYYADSVKGRFTISADTSKNTAYLQMNSLRAEDTAVYYCARGYFYTWGGMDYWGQGTLVTVSS
VL: DIQMTQSPSSLSASVGDRVTITCRASQSVSSAVAWYQQKPGKAPKLLIYSASSLYSGVPSRFSGSRSGTDFTLTISSLQPEDFATYYCQQYYSLFTFGQGTKVEIK
In the case of B1, the binding result in test [1] is “binds”.

B2: representative PARVA binder (GaluxDesign de novo designed full-length IgG, cross-platform benchmark) (antibody, V domains shown)
VH: EEQLVESGGGLVQPGGSLRLSCAASGFNIKDYWIHWVRQAPGKGLEWVAWINPQSGWTNYADSVKGRFTISADTSKNTAYLQMNSLRAEDTATYYCAKIGDWGGKGYALDVWGQGTLVTVSS
VL: DIVMTQSPSSLSASVGDRVTITCRASQDISTALAWYQQKPGQAPKLLIYKASSLASGVPSRFSGSGSGTDFTLTISSLQPEDFATYYCQQFRDLSTLTFGQGTKVEIK
Regarding B2, the binding result in the test with parvin alpha (PARVA) is “binds”.

B3: representative AHSP binder (GaluxDesign de novo designed full-length IgG, cross-platform benchmark) (antibody, V domains shown)
VH: VQLVESGGGLVQPGGSLRLSCAASGFNIKSFWIHWVRQAPGKGLEWVAWIFALTGNTYYADSVKGRFTISADTSKNTAYLQMNSLRAEDTAVYYCAKASGVSIPLWFDVWGQGTLVTVSS
VL: DIQMTQSPSSLSASVGDKVTITCKASQDISNYLAWYQQKPGKAPKLLIYAASNRKYGVPSRFSGSGSGTDFTLTISSLQPEDFATYYCQQYYSTPLTFGQGTKVEIK
As to B3, the binding result in test [2] is on record as “binds”.
